Data from patent US20070116718A1.

What was measured:
[1] = target: single-chain MHC class II I-A^d complex with OVA 323-339 peptide, immobilized (chicken; murine) (UniProt P01012); assay: cell-based or functional assay
[2] = target: bacteriophage displaying the DO11.10 scTCR/gene VIII fusion protein (vector pKC51) (murine; fd tet bacteriophage); assay: phage panning on biotin antibody on neutrAvidin wells, phage diluted 1:50,000 in irrelevant phage
bacteriophage displaying the DO11.10 scTCR/gene VIII fusion protein (vector pKC51) (murine; fd tet bacteriophage), sequence (main, as listed by the source): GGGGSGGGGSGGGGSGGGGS

Substance | level of IL-2 inhibition, DO11.10 group against gD12 hybridoma group [1] [fold] | fold enrichment after a single round of panning [2] [fold]
bacteriophage displaying the DO11.10 scTCR/gene VIII fusion protein (vector pKC51) | 8 to 10 | 
anti-V-β8.2 monoclonal antibody MR5-2 (PharMingen) |  | 5000
hamster anti-mouse αβ TCR antibody H57-597 (ATCC HB-218) |  | 5000
